Test results published in patent US20070054846A1, “Bcl-w structure and uses therefor” (priority 2002, published 2007).

T1: full length Bcl-w (Homo sapiens, UniProt Q92843, Q133R)
T1 sequence (Q92843 1-193 Q133R): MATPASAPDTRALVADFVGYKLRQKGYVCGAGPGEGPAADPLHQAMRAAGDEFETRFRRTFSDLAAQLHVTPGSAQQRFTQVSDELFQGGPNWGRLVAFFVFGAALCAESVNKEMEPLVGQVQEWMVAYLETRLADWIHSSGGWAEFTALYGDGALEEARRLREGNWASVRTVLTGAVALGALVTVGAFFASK

T2: Bcl-wΔC29 (Homo sapiens, UniProt Q92843, Q133R)
T2 construct: GST (N, cleaved yes); made in house; host or cells: E. coli BL21(DE3)
T2 sequence (Q92843 1-164 Q133R): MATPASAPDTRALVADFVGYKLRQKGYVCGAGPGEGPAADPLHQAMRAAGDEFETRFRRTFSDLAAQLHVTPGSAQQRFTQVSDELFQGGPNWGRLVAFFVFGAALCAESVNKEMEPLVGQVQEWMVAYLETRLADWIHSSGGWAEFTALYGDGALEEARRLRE

T3: Bcl-wΔC20 (Homo sapiens, UniProt Q92843, Q133R)
T3 construct: made in house; host or cells: E. coli BL21(DE3)
T3 sequence (Q92843 1-173 Q133R): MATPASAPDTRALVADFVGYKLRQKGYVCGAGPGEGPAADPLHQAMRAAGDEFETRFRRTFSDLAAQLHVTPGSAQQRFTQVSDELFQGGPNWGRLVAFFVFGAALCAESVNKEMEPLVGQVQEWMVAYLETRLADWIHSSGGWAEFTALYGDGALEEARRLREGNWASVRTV

T4: Bcl-wΔC10 (Homo sapiens, UniProt Q92843, A128E/Q133R)
T4 construct: made in house; host or cells: E. coli BL21(DE3)
T4 sequence (Q92843 1-183 A128E/Q133R): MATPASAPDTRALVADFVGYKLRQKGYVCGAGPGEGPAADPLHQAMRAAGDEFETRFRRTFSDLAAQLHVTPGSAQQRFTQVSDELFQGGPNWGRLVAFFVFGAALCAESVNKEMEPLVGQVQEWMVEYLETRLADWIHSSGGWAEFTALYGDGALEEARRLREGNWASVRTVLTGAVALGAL


What was measured:
full-length Bcl-xL = biological target: T5, full-length Bcl-xL (Homo sapiens, UniProt Q07817); assay: Co-immunoprecipitation from cell extracts; format: binding; conditions: FLAG-tagged full-length Bcl-xL
T5 construct: FLAG-tagged full-length Bcl-xL or a C-terminally truncated mutant (ΔC24); expressed in transfected cells
T5 sequence (Q07817 whole entry, species assumed, the tested form may be a part): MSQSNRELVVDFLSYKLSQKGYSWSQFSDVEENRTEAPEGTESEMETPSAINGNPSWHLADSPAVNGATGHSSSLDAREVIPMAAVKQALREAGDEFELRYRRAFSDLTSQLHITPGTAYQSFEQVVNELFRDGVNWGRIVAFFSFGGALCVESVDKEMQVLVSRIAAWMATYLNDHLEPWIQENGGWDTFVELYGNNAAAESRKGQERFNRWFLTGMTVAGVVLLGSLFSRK
Source text: (§1) Bcl-xL and Bcl-2 also contain hydrophobic residues at their C-termini, similar to those found in Bcl-w (FIG. 1C), yet the low level of sequence identity following α8 and the absence of 3D-structural information, makes prediction of their conformation difficult. Since BCl-xL, like Bcl-w, is only partially membrane-bound in healthy cells (Hsu et al., 1997), we compared the ability of FLAG-tagged full-length Bcl-xL or a C-terminally truncated mutant (ΔC24) to bind to BimL or the […]L94A B3 mutant.
Cell culture, stable transfections into FDC-P1, transient transfections into 293T human embryonic kidney cells, metabolic labelling with ^35S-methionine/cysteine (NEN) and co-immunoprecipitation have been previously described (O'Connor et al., 1998, Moriishi et al., 1999; Huang et al., 1998; Wilson-Annan et al., 2003). Briefly, mammalian pEF-based expression vectors for Bcl-w, BCl-xL, Bim, Bmf, Bad and Bik (O'Connor et al., 1998, Huang et al., 1998; Moriishi et al., 1999; Wilson-Annan et al., 2003) were transiently transfected using liposome mediated transfection (Lipofectamine™; Invitrogen). […] The immunoprecipitates were resolved by SDS-PAGE (Novex), transferred onto nitrocellulose membranes (APB) and the proteins detected by fluorography (Amplify; APB).

Bcl-xLΔC24 = biological target: T6, Bcl-xLΔC24 (Homo sapiens, UniProt Q07817); assay: Co-immunoprecipitation / GST pull-down; format: binding; conditions: C-terminally truncated Bcl-xL (ΔC24)
T6 construct: expressed in transfected cells
T6 sequence (Q07817 1-209 limits assumed, stated change not applied): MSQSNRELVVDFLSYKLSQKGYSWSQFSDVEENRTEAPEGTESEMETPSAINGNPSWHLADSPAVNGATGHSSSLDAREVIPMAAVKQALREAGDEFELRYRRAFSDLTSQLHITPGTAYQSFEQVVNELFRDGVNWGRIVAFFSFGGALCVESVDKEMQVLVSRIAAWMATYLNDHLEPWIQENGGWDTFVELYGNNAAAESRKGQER
Source text: as §1
Direct interactions between Bcl-w and BimL were monitored using GST pull-down experiments. These were performed in 100 μl of PBS (phosphate buffered saline pH 7.3) containing 2 mM DTT. Typically excess soluble proteins were added to equivalent amounts of resin bound proteins. After incubation at room temperature for 30 minutes the resin was pelleted and then washed twice with 200 μl of PBS containing 0.2% Tween 20. […]
Cell culture, stable transfections into FDC-P1, transient transfections into 293T human embryonic kidney cells, metabolic labelling with ^35S-methionine/cysteine (NEN) and co-immunoprecipitation have been previously described (O'Connor et al., 1998, Moriishi et al., 1999; Huang et al., 1998; Wilson-Annan et al., 2003). […] The immunoprecipitates were resolved by SDS-PAGE (Novex), transferred onto nitrocellulose membranes (APB) and the proteins detected by fluorography (Amplify; APB).

FDC-P1 myeloid cells = assay: Survival assay of cells overexpressing Bcl-w constructs; format: cell-based; conditions: overexpressed FLAG-tagged protein, IL-3 withdrawal, γ-irradiation or cytotoxic drugs
Description: Like its cousins Bcl-2 and Bcl-xL, Bcl-w overexpression protects cells from diverse death stimuli, including cytokine deprivation and γ-irradiation (Gibson et al., 1996).
Survival assays were performed as described previously (O'Connor et al., 1998; Huang et al., 1998; Wilson-Annan et al., 2003; and references therein). Briefly, cells (2−5×10^4 per time point) were left untreated, deprived of their essential growth factor IL-3, exposed to 10Gy γ-irradiation (provided by a ^60Co source), 1-100 nM staurosprorine (Sigma). Cell viability was quantified by flow cytometric analysis of cells excluding 5 μg/mL PI (Sigma) using a FACScan (Becton Dickinson). Each time point was performed in triplicate on at least 3 independent clones of each genotype and the experiments repeated at least 3 times.

full length Bcl-w [1] = biological target: T1, full length Bcl-w; assay: GST pull-down; format: binding; set-up: N-terminally FLAG-tagged full-length or C-terminally truncated Bcl-w; expressed in transfected cells; host or cells: 293T human embryonic kidney cells (pEF-based vector, transient)
Source text: (§2) Human Bcl-w and mouse BimL were expressed as glutathione-S-transferase (GST) fusion proteins in E. coli BL21(DE3) and purified by affinity chromatography using Glutathione Sepharose (APB; Amersham Pharmacia Biotech). Following purification of the GST-fusion proteins Bcl-w and Bim were released from GST using PreScission protease (APB) and then further purified by size exclusion chromatography using a Superdex-75 column. All the purified proteins have 5 additional N-terminal residues (GPLGS) as a result of cloning. Isotopically labelled proteins were prepared as described previously (Day et al., 1999). Samples of Bcl-wΔC10 used for NMR contained ˜1.0 mM protein in 50 mM sodium phosphate (pH 6.7), 70 mM NaCl, 2 mM tris-(2-carboxyethyl) phosphine (TCEP) and 0.04% sodium azide in H2O:^2H2O (95:5). The Bcl-wΔC5 sample contained 0.4 mM protein in the same buffer. Site specific mutants of BimL and Bcl-w were generated using a PCR based strategy as described previously (Day et al., 1999). The sequence of all clones was confirmed by sequencing.
Direct interactions between Bcl-w and BimL were monitored using GST pull-down experiments. These were performed in 100 μl of PBS (phosphate buffered saline pH 7.3) containing 2 mM DTT. Typically excess soluble proteins were added to equivalent amounts of resin bound proteins. […]

Bcl-wΔC29 [2] = biological target: T2, Bcl-wΔC29; assay: BIAcore surface plasmon resonance, truncated Bcl-w in solution on immobilised Bim; format: binding; conditions: for Kd: Bcl-w truncated by 29 residues at the C-terminus
Source text: as §2
Analysis of protein interactions by surface plasmon resonance was carried out on a BIAcore 2000 biosensor (BIAcore). For the immobilisation to BIAcore CM 5 sensorchips (BIAcore), wild-type or mutant Bim proteins were buffer exchanged into 20 mM Na-acetate, pH 4.5. N-hydroxysuccinimide coupling and binding analysis was done as described previously (Lackmann et al., 1997). In order to minimise mass-transport mediated effects the kinetic experiments were routinely carried out at 20 μl/min. Bcl-w binding at concentrations between 2 and 0.03 μM in running buffer (10 mM HEPES, pH 7.4, 150 mM NaCl, 3.4 mM EDTA, 0.005% Tween 20) was performed on sensorchip surfaces derivatised on parallel channels with a non-relevant protein, BimLΔC27 and BimLΔC27-L94A. The binding kinetics were derived from the sensorgrams following subtraction of baseline responses (measured on the control channel) by ‘global analysis’ using the BIA Evaluation software (vers. 3.02, BIAcore). […]

full length Bcl-w [3] = biological target: T1, full length Bcl-w; assay: BIAcore surface plasmon resonance, Bcl-w protein in solution on immobilised Bim; format: binding; set-up: GST (N, cleaved yes); made in house; host or cells: E. coli BL21(DE3); conditions: for Kd: 1:1 Langmuir model, global analysis
Source text: as §2
Analysis of protein interactions by surface plasmon resonance was carried out on a BIAcore 2000 biosensor (BIAcore). For the immobilisation to BIAcore CM 5 sensorchips (BIAcore), wild-type or mutant Bim proteins were buffer exchanged into 20 mM Na-acetate, pH 4.5. N-hydroxysuccinimide coupling and binding analysis was done as described previously (Lackmann et al., 1997). In order to minimise mass-transport mediated effects the kinetic experiments were routinely carried out at 20 μl/min. Bcl-w binding at concentrations between 2 and 0.03 μM in running buffer (10 mM HEPES, pH 7.4, 150 mM NaCl, 3.4 mM EDTA, 0.005% Tween 20) was performed on sensorchip surfaces derivatised on parallel channels with a non-relevant protein, BimLΔC27 and BimLΔC27-L94A. The binding kinetics were derived from the sensorgrams following subtraction of baseline responses (measured on the control channel) by ‘global analysis’ using the BIA Evaluation software (vers. 3.02, BIAcore). The surface of the chip was regenerated with 50 mM 1,2-diethylamine containing 0.1% Triton X100, followed by two washes with running buffer.

Bcl-wΔC29 [4] = biological target: T2, Bcl-wΔC29; assay: GST pull-down; format: binding
Source text: as §2
(§3) Direct interactions between Bcl-w and BimL were monitored using GST pull-down experiments. These were performed in 100 μl of PBS (phosphate buffered saline pH 7.3) containing 2 mM DTT. Typically excess soluble proteins were added to equivalent amounts of resin bound proteins. After incubation at room temperature for 30 minutes the resin was pelleted and then washed twice with 200 μl of PBS containing 0.2% Tween 20. After removal of the second wash 10 μl of SDS-PAGE sample buffer was added to each sample and the samples were boiled then loaded onto 16% polyacrylamide gels that were electrophoresed and stained with Coomassie Blue R250. The staining intensity of the bound soluble protein indicated the strength of the interaction between the two proteins.

Bcl-wΔC20 = biological target: T3, Bcl-wΔC20; assay: GST pull-down; format: binding
Source text: as §2, §3

Bcl-wΔC10 = biological target: T4, Bcl-wΔC10; assay: GST pull-down; format: binding
Source text: as §2, §3

| Molecule | pro-survival activity (FDC-P1 myeloid cells) | binding in GST pull-down (full length Bcl-w [1]) | Kd (Bcl-wΔC29 [2]) [nM] | Kd (full length Bcl-w [3]) [nM] | binding in GST pull-down (Bcl-wΔC29 [4]) | binding in GST pull-down (Bcl-wΔC20) | binding in GST pull-down (Bcl-wΔC10) | further results |
| --- | --- | --- | --- | --- | --- | --- | --- | --- |
| BimL-L94A: BimL with BH3 mutation L94A (protein, left off: small tags and cut ends) MAKQPSDVSSECDREGGQLQPAERPPQLRPGAPTSLQTEPQDRSPAPMSCDKSTQTPSPPCQAFNHYLSAMASIRQSQEEPEDLRPEIRIAQEARRIGDEFNETYTRRVFANDYREAEDHPQMVILQLLRFIFRLVWRRH | – | – | – | – | – | – | – | association in cell extracts (full-length Bcl-xL): associates only with wild-type BimL; binding (Bcl-xLΔC24): bound wild-type BimL and the L94A mutant equally |
| Bcl-wΔC3: C-terminal truncated variant of Bcl-w lacking 3 residues (protein) single chain: MATPASAPDTRALVADFVGYKLRQKGYVCGAGPGEGPAADPLHQAMRAAGDEFETRFRRTFSDLAAQLHVTPGSAQQRFTQVSDELFQGGPNWGRLVAFFVFGAALCAESVNKEMEPLVGQVQEWMVAYLETRLADWIHSSGGWAEFTALYGDGALEEARRLREGNWASVRTVLTGAVALGALVTVGAFF | fully active | – | – | – | – | – | – | – |
| Bcl-wΔC10: SEQ ID NO:2; Bcl-w derivative lacking the last 10 residues, Ala128 substituted with glutamate (protein, Bcl-w deltaC10 A128E, Bcl-w derivative lacking the last 10 residues, Ala128 substituted with glutamate) MATPASAPDTRALVADFVGYKLRQKGYVCGAGPGEGPAADPLHQAMRAAGDEFETRFRRTFSDLAAQLHVTPGSAQQRFTQVSDELFQGGPNWGRLVAFFVFGAALCAESVNKEMEPLVGQVQEWMVEYLETRLADWIHSSGGWAEFTALYGDGALEEARRLREGNWASVRTVLTGAVALGAL | biologically inert | – | – | – | – | – | – | – |
| Bcl-wΔC5: C-terminal truncated variant of Bcl-w lacking 5 residues (protein) single chain: MATPASAPDTRALVADFVGYKLRQKGYVCGAGPGEGPAADPLHQAMRAAGDEFETRFRRTFSDLAAQLHVTPGSAQQRFTQVSDELFQGGPNWGRLVAFFVFGAALCAESVNKEMEPLVGQVQEWMVAYLETRLADWIHSSGGWAEFTALYGDGALEEARRLREGNWASVRTVLTGAVALGALVTVGA | behaved like the full-length protein | – | – | – | – | – | – | pro-survival activity (FDC-P1 myeloid cells; listed as ΔC5): fully active |
| BimLΔC27: Purified, C-terminally truncated mouse BimL, a BH3-only protein (protein) GPLGSMAKQPSDVSSECDREGGQLQPAERPPQLRPGAPTSLQTEPQDRSPAPMSCDKSTQTPSPPCQAFNHYLSAMASIRQSQEEPEDLRPEIRIAQELRRIGDEFNETYTRRVFAND | – | bound | 11 | 24 | bound equally well | bound equally well | bound | increase in the association rate versus full length Bcl-w (Bcl-wΔC29 [2]; Bcl-wΔC29): three-fold |
| BimLΔC27-L94A: Mutant version of C-terminally truncated BimL with BH3 domain mutation L94A (protein) GPLGSMAKQPSDVSSECDREGGQLQPAERPPQLRPGAPTSLQTEPQDRSPAPMSCDKSTQTPSPPCQAFNHYLSAMASIRQSQEEPEDLRPEIRIAQEARRIGDEFNETYTRRVFAND | – | only bound wt BimLΔC27 | 13 | 1600 | bound equally well | bound equally well | only bound wt BimLΔC27 | decrease in the association rate versus wild-type Bim (full length Bcl-w [3]): 10 fold; increase in the dissociation rates versus wild-type Bim (full length Bcl-w [3]): five-fold; reduction of affinity versus wild-type Bim (full length Bcl-w [3]): over 60 fold |
